Source: patent publication US20260234738A1 (Regeneron, published 2026)
Several values for one entry are separate records, joined by “and”; a condition that tells them apart may be missing. Identical values can stand only once.

What was measured:
[1] = target: SARS-COV-2 Spike protein receptor binding domain (amino acids Arg319-Phe541) expressed with the Fc p (SARS-CoV-2)
[2] = target: Bt-SARS-CoV-2 Spike Protein (RBD) (R319-F541).mFc (SARS-CoV-2); test: Luminex beads, supernatant
[3] = target: SARS-CoV-2 Spike Protein (RBD) (R319-F541).mFc (SARS-CoV-2); test: Luminex beads, supernatant
[4] = target: SARS-CoV-2 Spike Protein (RBD) (R319-F541).hFc (SARS-CoV-2); test: Luminex beads, supernatant

| Binder | IC50 [1] | MFI [2] [MFI] | MFI [3] [MFI] | MFI [4] [MFI] |
| --- | --- | --- | --- | --- |
| mAb10989 (antibody, V domains shown) VH: QVQLVQSGAEVKKPGASVKVSCKASGYIFTGYYMHWVRQAPGQGLEWMGWINPNSGGANYAQKFQGRVTLTRDTSITTVYMELSRLRFDDTAVYYCARGSRYDWNQNNWFDPWGQGTLVTVSS VL: QSALTQPASVSGSPGQSITISCTGTSSDVGTYNYVSWYQQHPGKAPKLMIFDVSNRPSGVSDRFSGSKSGNTASLTISGLQAEDEADYYCSSFTTSSTVVFGGGTKLTVLG | 0.0591 nM and 0.0428 nM | – | – | – |
| mAb10934 (antibody, V domains shown) VH: not shown VL: DIQMTQSPSSLSASVGDRVTITCQASQDIWNYINWYQQKPGKAPKLLIYDASNLKTGVPSRFSGSGSGTDFTFTISSLQPEDIATYYCQQHDDLPPTFGQGTKVEIKR | – | 21200 | 34300 | 35800 |
| mAb10938 (antibody, V domains shown) VH: EVQLVESGGGLVQPGGSLRLSCAVSGFTVSSNYMSWVRQAPGKGLEWVSLIYSGGSTFYADSVKGRFTISRHNSKNTLYLQMNSLRAEDTAVYYCAREGGYSYDYNYWGQGTLVTVSS VL: DIQMTQSPSSLSASVGDRVTITCQASQDIRNYLNWYQQKPGKAPKLLIYDASNLETGVPSRFSGIGSGTDFTFTISSLQPEDIATYYCQQYDNLPITFGQGTRLEIKR | – | 17200 | 30500 | 29600 |
| mAb10935 (antibody, V domains shown) VH: EVQLVESGGGLVQPGGSLRLSCAASGFTVSSNYMSWVRQAPGKGLEWVSLIYSGGSTYYADSVKGRFTISRHNSKNTLYLQMNSLRSEDTAVYYCARVPLGDYYYGMDVWGQGTTVTVSS VL: DIQMTQSPSSLSASVGDRVTITCQASQDINKYLNWYQQKPGKAPKLLIYDASNLETGVPSRFSGSGSGTDFTFTISSLQPEDIATYYCQQSDNLPLTFGGGTKVEIKR | – | 19300 | 35900 | 35600 |
| mAb10923 (antibody, V domains shown) VH: QVQLVQSGAEVKKPGASVKVSCKASGYTFINYYIHWVRQAPGQGLEWMGWINPNSGGTNYAQKFQGRVTMTRDTSISTAYMELSRLRSDDTAVYYCAIITIFGVVTWFDPWGQGTLVTVSS VL: not shown | – | 19600 | 37400 | 37800 |
| mAb10986 (antibody, V domains shown) VH: EVQLVESGGGLVQPGGSLRLSCAASEFTVSSNYMSWVRQAPGKGLEWVSVIYSGGSTFYADSVKGRFTISRDNSKNTLYLQMNSLRAEDTAVYYCARALPYGDLHFDYWGQGTLVTVSS VL: QSVLTQPPSVSGAPGQRVTISCTGSSSNIGTGYDVHWYQQLPGTAPKLLIYGNTNRPSGVPDRFSGSKSGTSASLAITGLQAEDEADYYCQSYDSSLSDSYVFGTGTKVTVLG [mAb10986, listing 1 of 2 here] | 0.0754 nM | – | – | – |
| mAb10982 (antibody, V domains shown) VH: EVQLVESGGGLVQPGGSLRLSCAASGLTVSSNYMSWVRQAPGKGLEWVSVIYSGGTTYYADSVKGRFTISRHNSKNTLSLQMNSLRAEDTAVYYCARGEGANYYGMDVWGQGTTVTVSS VL: QSVLTQPPSVSGAPGQRVTISCTGSSSNIGTGYDVHWYQQLPGTAPKLLIYGNSNRPSGVPDRFSGSKSGTSASLAITGLQAEDEADYYCQSYDSSLSGYVVFGGGTKLTVLG | – | 12300 | 23300 | 23000 |
| mAb10986 (antibody, V domains shown) VH: EVQLVESGGGLVQPGGSLRLSCAASEFTVSSNYMSWVRQAPGKGLEWVSVIYSGGSTFYADSVKGRFTISRDNSKNTLYLQMNSLRAEDTAVYYCARALPYGDLHFDYWGQGTLVTVSS VL: QSVLTQPPSVSGAPGQRVTISCTGSSSNIGTGYDVHWYQQLPGTAPKLLIYGNTNRPSGVPDRFSGSKSGTSASLAITGLQAEDEADYYCQSYDSSLSDSYVFGTGTKVTVLG [mAb10986, listing 2 of 2 here] | – | 15900 | 28400 | – |
| mAb10932 (antibody, V domains shown) VH: EVQLVESGGGLVQSGGSLRLSCAASGLTVSSNYMSWVRQAPGKGLEWVSVIYSGGSTFYSDSVKGRFTISRHNSKNTLYLQMNSLRAEDTAVYYCARARGDAFDIWGQGTMVTVSS VL: not shown | – | 17700 | 30600 | 30600 |
| mAb10914 (antibody, V domains shown) VH: EVQLVESGGGLVQPGGSLRLSCAASGLIVSRNYMIWVRQAPGKGLEWVSVIYSGGSTFYADSVKGRFTISRHNSKNTLYLQMNSLRAEDTAVYYCARDLGTGGMDVWGQGTTVTVSS VL: DIQLTQSPSFLSASVGDRVTITCWASQGISSYLAWYQQKPGKAPKLLIYAASTLQSGVPSRFSGSGSGTEFTLTISSLQPEDFATYYCQQLNSYPLTFGGGTKVEIKR | – | 16000 | 30700 | 30500 |
| mAb11008 (antibody, V domains shown) VH: EVQLVESGGGLVQPGGSLRLSCAASGFTVSSNYMTWVRQAPGKGLEWVSVIYSGGSTFYADSVKGRFTISRHNSENTLYLQMNSLRAEDTAVYYCARDLAAAGTDYWGQGALVTVSS VL: DIQLTQSPSFLSASVGDRVTITCWASQGISSYLAWYQQKPGKAPKLLIYAASTLQSGVPSRFSGSGSGTEFTLTISSLQPDDFATYYCQHLNSYLYTFGQGTKLEIKR | 1.49 nM | – | – | – |
| mAb11006 (antibody, V domains shown) VH: EVQLVESGGGLVQPGGSLRLSCAASGFIVSRNYMSWVRQAPGKGLEWVSVIYSGGSTFYADSVKGRFTISRHNSKNTLYLQMNSLKAEDTAVYYCARELRGYFDYWGQGTLVTVSS VL: DIQLTQSPSFLSASVGDRVTITCWASQGISSYLAWYQQKPGKAPKLLIYAASTLQSGVPSRFSGSGSGTEFTLTISSLQPEDFATYYCQLLNSYPYTFGQGTKLEIKR | 0.22 nM | – | – | – |
| mAb10937 (antibody, V domains shown) VH: QITLKESGPTLVKPTQTLTLTCTFSGFSLSTNVVGVGWIRQPPGKALEWLALIYWNDDKRYSPSLKSRLTITKDTSKNQVVLTMTNMDPVDTATYYCAHGPTGDYFDYWGQGTLVTVSS VL: not shown | – | 19700 | 34200 | 34600 |
| mAb10921 (antibody, V domains shown) VH: EVQLVESGGGLVQPGGSLRLSCAASGITVSSNYMSWVRQAPGKGLEWVSVIYSGGSTFYADSVKGRFTISRHNSKNTLYLQMNSLRAEDTAVYYCARERNFDAFDIWGQGTMVTVSS VL: DIQMTQSPSSVSASVGDRVTITCRASQGISSWLAWYQQKPGKAPKLLIYAASSLQSGVPSRFSGSGSGTDFTLTISSLQPEDFATYYCQQANSFPLFTFGPGTKVDIKR | – | 11300 | 19400 | 22300 |
| mAb10915 (antibody, V domains shown) VH: EVQLVESGGGLVQPGGSLRLSCAASGFTVSSNYMNWVRQAPGKGLEWVSVIYSGGSTFYADSVKGRFTISRHNSKNTLYLQMNSLRPEDTAVYYCARDLGGYFDYWGQGTLVTVSS VL: not shown | – | 20100 | 31800 | 32400 |
| mAb10936 (antibody, V domains shown) VH: QVQLVESGGGVVQPGRSLRLSCAASGFTFRNYGMHWVRQAPGKGLEWVSVIWYDGSNRYYADSVKGRFTISRDTSKNTLYLQMNSLRAEDTAVYYCARDPPITGTTGGDAFDIWGQGTMVTVSS VL: not shown | – | 21600 | 33700 | 33900 |
| mAb10913 (antibody, V domains shown) VH: EVQLVESGGGLVQPGGSLRLSCAASGFTFRNYEMNWVRQAPGKGLEWVSYITSSGSTMYYADSVKGRFTISRDNAKNSLYLQMNSLRAEDTAVYYCARDGFYYYYAMDVWGQGTTVTVSS VL: QSVLTQPPSVSAAPGQKVTISCSGSSSNIGNNYVSWYQQLPGTAPKLLIYDNNKRPSGIPDRFSGSKSGTSATLGITGLQTGDEADYYCGTWDSSLSVGRVFGTGTKVTVLG | – | 16600 | 33000 | 31900 |
| mAb11010 (antibody, V domains shown) VH: QVQLVESGGGVVQPGRSLRLSCAASGFTFSSYGMHWVRQAPGKGLEWVAVISYDGSYKYYADSVKGRFTISRDNSKNTLYLQMNSLRAEDTAVYYCAIDGGTVTTIFDYWGQGTLVTVSS VL: not shown | 0.147 nM | – | – | – |
| mAb10998 (antibody, V domains shown) VH: EVQLVESGGGLVHPGGSLRLSCAASGLTVSSNYMSWVRQAPGKGLEWVSVIYSGGSTYYADSVKGRFTISRHNSKNTLFLQMNSLRAEDTAVYYCARDRPITGTTLDVWGQGTTVTVSS VL: DIQMTQSPSSLFASVGDRVTITCRASQSISSYLNWYQQKPGKAPKLLIYAASSLQSGVPSRFSGSGSGTDFTLTISSLQPEDFAFYYCQQTYSTPPITFGQGTRLEIKR | 4.3 nM | – | – | – |
| mAb10939 (antibody, V domains shown) VH: EVQLVESGGGLVQPGGSLRLSCAASGLTVSSNYMNWVRQVPGKGLEWVSVIYSGGSKFYVDSVKGRFTISRHNSKNTLYLQMNSLRPEDTAVYYCTRDAQYYGMDVWGQGTTVTVSS VL: DIQMTQSPSSLSASVGDRVTITCRASQSISTYLHWYQQKPGEAPKLLIYAASSLQSGVPSRFSGSGSGTDFTLTISSLQPEDFATYYCQQSYSTPPEIFGQGTKLEIKR | – | 18700 | 33900 | 32900 |
| mAb10930 (antibody, V domains shown) VH: EVQLVESGGGLVQPGRSLRLSCAASGFTFDDYAMYWVRQAPGKGLEWVSGISWNSGSIGYADSVKGRFTISRDNAKNSLYLQMNSLRAADTALYYCAKDKDWNSRGYYYYGMDVWGQGTTVTVSS VL: not shown | – | 16600 | 28600 | 28900 |
| mAb10920 (antibody, V domains shown) VH: QVQLVESGGGVVQPGRSLRLSCAASGFTFSYYGMHWVRQAPGKGLEWVAVIWYDGSNKFYADSVKGRFTISRDNSKNTLYLQMNSLRAEDTAVYYCAAARPGYYYGMDVWGQGTTVTVSS VL: DIQMTQSPSSLSASVGDRVTITCRASQGISNYLAWFQQKPGKAPNSLIYAASSLQRGVPSKFSGSGSGTDFTLTISSLQPEDFATYYCQQYNSYPRTFGQGTKVEIKR | – | 20300 | 36400 | 36800 |
